In patent US20230416363A1 (KADMON, published 2023):

T1: mPD1 (soluble, ELISA of Examples 20 and 24) (mouse, UniProt Q02242 25-167, limits assumed)
T1 construct: also called Biotin-mPD1
T1 sequence (looked up): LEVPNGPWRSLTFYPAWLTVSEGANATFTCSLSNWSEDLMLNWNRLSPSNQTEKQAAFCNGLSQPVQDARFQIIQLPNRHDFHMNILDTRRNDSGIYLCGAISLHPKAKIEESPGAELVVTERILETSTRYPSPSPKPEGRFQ

T2: mPD-1-his (mouse, UniProt Q02242 25-167, limits assumed)
T2 construct: domain: IgV domain
T2 sequence: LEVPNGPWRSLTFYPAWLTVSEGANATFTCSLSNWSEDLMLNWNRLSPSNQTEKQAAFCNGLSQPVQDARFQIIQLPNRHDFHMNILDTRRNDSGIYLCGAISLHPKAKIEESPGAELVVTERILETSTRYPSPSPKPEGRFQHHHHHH

T3: mouse PD-1 expressed on cells (mouse, UniProt Q02242 25-288)
T3 construct: whole, on cells
T3 sequence (looked up): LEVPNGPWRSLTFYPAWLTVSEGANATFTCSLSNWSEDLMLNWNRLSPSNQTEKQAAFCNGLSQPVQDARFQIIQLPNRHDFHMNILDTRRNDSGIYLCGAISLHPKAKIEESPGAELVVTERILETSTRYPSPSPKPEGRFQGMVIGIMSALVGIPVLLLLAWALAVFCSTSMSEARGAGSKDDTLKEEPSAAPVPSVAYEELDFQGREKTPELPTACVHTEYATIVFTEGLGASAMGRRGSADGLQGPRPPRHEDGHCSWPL

T4: mPD-1-Fc (mouse; human, UniProt Q02242 25-167, limits assumed)
T4 construct: domain: IgV domain; not shown: human IgG1 Fc
T4 sequence (looked up): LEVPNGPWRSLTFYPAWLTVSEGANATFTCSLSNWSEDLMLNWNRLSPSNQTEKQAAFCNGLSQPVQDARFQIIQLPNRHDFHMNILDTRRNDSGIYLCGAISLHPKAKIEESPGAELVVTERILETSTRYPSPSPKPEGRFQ


Legend:
[1] = biological target: T1, mPD1 (soluble, ELISA of Examples 20 and …); assay: blocking ELISA, mPD1 to mPDL1
[2] = biological target: T1, mPD1 (soluble, ELISA of Examples 20 and …); assay: ELISA, biotin-mPD1 on streptavidin
mPD-1-his [3] = biological target: T2, mPD-1-his; assay: ELISA, mPD-1-his on streptavidin
mPD-1-his [4] = biological target: T2, mPD-1-his; assay: SPR Biacore, mPD1-his
[5] = biological target: T3, mouse PD-1 expressed on cells; assay: flow cytometry, mPD1-293 cells
[6] = biological target: T3, mouse PD-1 expressed on cells; assay: cell-based or functional assay
mPD-1-his [7] = biological target: T2, mPD-1-his; assay: SPR Biacore, mPD1-his (second m3A7 row)
[8] = biological target: T5, hPD1 (soluble, ELISA of Example 20) (human, UniProt Q15116 25-167, limits assumed); assay: blocking ELISA, hPD1 to hPDL1
mPD-1-Fc [9] = biological target: T4, mPD-1-Fc; assay: SPR Biacore, mPD1-Fc (second m3A7 row)
[10] = biological target: T3, mouse PD-1 expressed on cells; assay: flow cytometry, mPD-1-293 cells
mPD-1-Fc [11] = biological target: T4, mPD-1-Fc; assay: ELISA, mPD-1-Fc
[12] = biological target: T1, mPD1 (soluble, ELISA of Examples 20 and …); assay: ELISA, mPD1
[13] = biological target: T5, hPD1 (soluble, ELISA of Example 20); assay: ELISA, hPD1
mPD-1-Fc [14] = biological target: T4, mPD-1-Fc; assay: ELISA, mPD-1-Fc on streptavidin
hPD-1-Fc [15] = biological target: T6, hPD-1-Fc (human, UniProt Q15116 25-167); assay: SPR Biacore, hPD1-Fc
T6 construct: domain: IgV domain; also called human PD-1-Fc; not shown: human IgG1 Fc

mPD-1-Fc [16] = biological target: T4, mPD-1-Fc; assay: blocking ELISA, mPD-1 to PD-L1
mPD-1-Fc [17] = biological target: T4, mPD-1-Fc; assay: SPR Biacore, mPD1-Fc
[18] = biological target: T3, mouse PD-1 expressed on cells; assay: cell-based or functional assay; remark: listed apart in the source
hPD-1-Fc [19] = biological target: T6, hPD-1-Fc; assay: SPR Biacore, hPD1-Fc (second m3A7 row)
[20] = biological target: T3, mouse PD-1 expressed on cells; assay: flow cytometry, mPD1-eff cells
[21] = biological target: T7, human PD-1 expressed on cells (human, UniProt Q15116 25-288); assay: flow cytometry, hPD1-293 cells
T7 construct: whole, on cells

[22] = biological target: T7, human PD-1 expressed on cells; assay: flow cytometry, hPD1-Jurkat cells
[23] = biological target: T7, human PD-1 expressed on cells; assay: cell-based or functional assay

T5 sequence (Q15116 25-167 limits assumed): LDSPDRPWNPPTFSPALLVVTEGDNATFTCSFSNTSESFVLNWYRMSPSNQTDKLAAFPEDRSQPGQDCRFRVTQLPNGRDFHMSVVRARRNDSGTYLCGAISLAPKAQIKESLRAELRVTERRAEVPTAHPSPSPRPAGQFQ
T6 sequence (Q15116 25-167 limits assumed): as above
T7 sequence (Q15116 25-288): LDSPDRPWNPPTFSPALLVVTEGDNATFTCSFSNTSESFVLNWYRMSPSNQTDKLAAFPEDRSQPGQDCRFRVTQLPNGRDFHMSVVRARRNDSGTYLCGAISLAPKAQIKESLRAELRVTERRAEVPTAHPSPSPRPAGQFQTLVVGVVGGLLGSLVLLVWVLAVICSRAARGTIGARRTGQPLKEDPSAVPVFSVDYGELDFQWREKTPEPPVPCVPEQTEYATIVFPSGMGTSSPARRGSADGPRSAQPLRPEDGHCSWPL

Row | Binder | IC50 [1] | EC50 [2] | Kd (mPD-1-his [4]) | koff (mPD-1-his [4]) | kon (mPD-1-his [4]) | EC50 [5] | IC50 [8] | EC50 [12] | EC50 [13] | Kd (hPD-1-Fc [15]) | koff (hPD-1-Fc [15]) | kon (hPD-1-Fc [15]) | Kd (mPD-1-Fc [17]) | koff (mPD-1-Fc [17]) | kon (mPD-1-Fc [17]) | IC50, Promega blockade bioassay [18] | EC50 [20] | other results
1 | m3A7 (antibody, V domains shown, R3A9 derivative; also called 7115C) VH: QVQLVQSGAEVKKPGASVKVSCKASGHTFTSYYIHWVRQAPGQGLEWMGIINPSGGSTSYAQKFQGRVTMTRDTSTSTVYMELSSLRSEDTAVYYCARDRAYGGAGDYWGQGTLVTVSS VL: DIQMTQSPSSLSASVGDRVTITCRASRSISNWLAWYQQKPGKAPKLLIYAASSLQSGVPSRFSGSGSGTDFTLTISSLQPEDFATYYCQQSYSAPVTFGQGTKVEIK | 0.537 nM | 0.268 nM | 3.03 nM | 0.000823 s⁻¹ | 272000 M⁻¹ s⁻¹ | 0.609 nM | 37.8 nM | 0.349 nM | 0.63 nM | 103 nM | 0.0176 s⁻¹ | 171000 M⁻¹ s⁻¹ | 2.53 nM | 0.000659 s⁻¹ | 261000 M⁻¹ s⁻¹ | 0.561 nM | 0.27 nM | EC50 (mPD-1-his [3]): 0.251 nM; IC 50, Promega assay [6]: 0.0709 µg/mL; Kd (mPD-1-his [7]): 1.98 nM; koff (mPD-1-his [7]): 0.000479 s⁻¹; kon (mPD-1-his [7]): 241000 M⁻¹ s⁻¹; Kd (mPD-1-Fc [9]): 1.86 nM; koff (mPD-1-Fc [9]): 0.000406 s⁻¹; kon (mPD-1-Fc [9]): 219000 M⁻¹ s⁻¹; EC50 [10]: 0.228 nM; EC50 (mPD-1-Fc [11]): 0.834 nM; EC50 (mPD-1-Fc [14]): 0.187 nM; IC50 (mPD-1-Fc [16]): 0.102 nM; Kd (hPD-1-Fc [19]): 19.9 nM; koff (hPD-1-Fc [19]): 0.00263 s⁻¹; kon (hPD-1-Fc [19]): 132000 M⁻¹ s⁻¹
2 | m4D1 (antibody, V domains shown, R3A9 derivative) VH: QVQLVQSGAEVKKPGASVKVSCKASGHTFTSYYIHWVRQAPGQGLEWMGIINPSGGSTSYAQKFQGRVTMTRDTSTSTVYMELSSLRSEDTAVYYCARDRAYGGAGDYWGQGTLVTVSS VL: DIQMTQSPSSLSASVGDRVTITCRASQSISAWLAWYQQKPGKAPKLLIYKASSLESGVPSRFSGSGSGTDFTLTISSLQPEDFATYYCQQSYSPPATFGGGTKVEIK | 0.882 nM | 1.15 nM | 2.87 nM | 0.000201 s⁻¹ | 70000 M⁻¹ s⁻¹ | 1.14 nM | 6.02 nM | 2.03 nM | 0.221 nM | 1.09 nM | 6.36e-05 s⁻¹ | 58300 M⁻¹ s⁻¹ | 2.69 nM | 0.000179 s⁻¹ | 66300 M⁻¹ s⁻¹ | 0.572 nM | 0.441 nM | EC50 [21]: 1.48 nM; EC50 [22]: 0.738 nM; IC50, Promega blockade bioassay [23]: 2.12 nM
